Assay results as given in ChEMBL document CHEMBL1649220, “New variant of CTX-M-type extended-spectrum beta-lactamases, CTX-M-71, with a Gly238Cys substitution in a Klebsiella pneumoniae isolate from Bulgaria” (2009).

What was measured:
[1] = substrate: CO/N=C(\C(=O)N[C@@H]1C(=O)N2C(C(=O)O)=C(COC(N)=O)CS[C@H]12)c1ccco1; experiment: (§1) Activity of Klebsiella pneumoniae AH27 CTX-M-15 beta-lactamase
[2] = substrate: C[C@@H](O)[C@H]1C(=O)N2C(C(=O)O)=C(S[C@@H]3CN[C@H](C(=O)N(C)C)C3)[C@H](C)[C@H]12; experiment: as §1
[3] = substrate: CO/N=C(\C(=O)N[C@@H]1C(=O)N2C(C(=O)O)=C(COC(C)=O)CS[C@H]12)c1csc(N)n1; experiment: as §1
[4] = substrate: CC(C)(O/N=C(\C(=O)N[C@@H]1C(=O)N2C(C(=O)[O-])=C(C[n+]3ccccc3)CS[C@H]12)c1csc(N)n1)C(=O)O; experiment: as §1
[5] = substrate: CC1(C)S[C@@H]2[C@H](NC(=O)Cc3ccccc3)C(=O)N2[C@H]1C(=O)O; experiment: as §1
[6] = substrate: C[C@@H](O)[C@H]1C(=O)N2C(C(=O)O)=C(S[C@@H]3CN[C@H](CNS(N)(=O)=O)C3)[C@H](C)[C@H]12; experiment: as §1
[7] = substrate: C[C@@H](O)[C@H]1C(=O)N2C(C(=O)O)=C(SCCNC=N)C[C@H]12; experiment: as §1
[8] = substrate: O=C(Cc1cccs1)N[C@@H]1C(=O)N2C(C(=O)[O-])=C(C[n+]3ccccc3)CS[C@H]12; experiment: as §1
[9] = substrate: CO/N=C(\C(=O)N[C@@H]1C(=O)N2C(C(=O)O)=C(COC(N)=O)CS[C@H]12)c1ccco1; experiment: (§2) Activity of Klebsiella pneumoniae AH24-270 CTX-M-71 beta-lactamase
[10] = substrate: C[C@H]1[C@H](NC(=O)/C(=N\OC(C)(C)C(=O)O)c2csc(N)n2)C(=O)N1S(=O)(=O)O; experiment: as §2
[11] = substrate: C[C@@H](O)[C@H]1C(=O)N2C(C(=O)O)=C(S[C@@H]3CN[C@H](C(=O)N(C)C)C3)[C@H](C)[C@H]12; experiment: as §2
[12] = substrate: CO/N=C(\C(=O)N[C@@H]1C(=O)N2C(C(=O)O)=C(COC(C)=O)CS[C@H]12)c1csc(N)n1; experiment: as §2
[13] = substrate: CC(C)(O/N=C(\C(=O)N[C@@H]1C(=O)N2C(C(=O)[O-])=C(C[n+]3ccccc3)CS[C@H]12)c1csc(N)n1)C(=O)O; experiment: as §2
[14] = substrate: CC1(C)S[C@@H]2[C@H](NC(=O)Cc3ccccc3)C(=O)N2[C@H]1C(=O)O; experiment: as §2
[15] = substrate: C[C@@H](O)[C@H]1C(=O)N2C(C(=O)O)=C(S[C@@H]3CN[C@H](CNS(N)(=O)=O)C3)[C@H](C)[C@H]12; experiment: as §2
[16] = substrate: C[C@@H](O)[C@H]1C(=O)N2C(C(=O)O)=C(SCCNC=N)C[C@H]12; experiment: as §2
[17] = substrate: C[C@@H](O)[C@H]1C(=O)N2C(C(=O)O)=C([C@H]3CCCO3)S[C@H]12; experiment: as §2
[18] = substrate: CC1(C)S[C@@H]2[C@H](NC(=O)[C@H](N)c3ccc(O)cc3)C(=O)N2[C@H]1C(=O)O; experiment: as §2
[19] = substrate: CCN1CCN(C(=O)N[C@@H](C(=O)N[C@@H]2C(=O)N3[C@@H]2SC(C)(C)[C@@H]3C(=O)O)c2ccccc2)C(=O)C1=O; experiment: as §2
[20] = substrate: O=C(Cc1cccs1)N[C@@H]1C(=O)N2C(C(=O)[O-])=C(C[n+]3ccccc3)CS[C@H]12; experiment: as §2

B1: Beta-lactamase AH27 CTX-M-15 (Klebsiella pneumoniae), Q2PUH3 (protein)
chain: MVKKSLRQFTLMATATVTLLLGSVPLYAQTADVQQKLAELERQSGGRLGVALINTADNSQILYRADERFAMCSTSKVMAAAAVLKKSESEPNLLNQRVEIKKSDLVNYNPIAEKHVNGTMSLAELSAAALQYSDNVAMNKLIAHVGGPASVTAFARQLGDETFRLDRTEPTLNTAIPGDPRDTTSPRAMAQTLRNLTLGKALGDSQRAQLVTWMKGNTTGAASIQAGLPASWVVGDKTGSGGYGTTNDIAVIWPKDRAPLILVTYFTQPQPKAESRRDVLASAAKIVTDGL
- Km [1]: 180 µM
- kcat [1]: 45 s⁻¹
- kcat [2]: < 0.004 s⁻¹
- Km [3]: 26 µM
- kcat [3]: 176 s⁻¹
- Km [4]: 236 µM
- kcat [4]: 4.4 s⁻¹
- Km [5]: 8.7 µM
- kcat [5]: 47 s⁻¹
- kcat [6]: < 0.002 s⁻¹
- kcat [7]: < 0.17 s⁻¹
- Km [8]: 39 µM
- kcat [8]: 188 s⁻¹

B2: Extended spectrum beta-lactamase CTX-M-71 (Klebsiella pneumoniae), C8YUV9 (protein)
chain: MVKKSLRQFTLMATATVTLLLGSVPLYAQTADVQQKLAELERQSGGRLGVALINTADNSQILYRADERFAMCSTSKVMAAAAVLKKSESEPNLLNQRVEIKKSDLVNYNPIAEKHVNGTMSLAELSAAALQYSDNVAMNKLIAHVGGPASVTAFARQLGDETFRLDRTEPTLNTAIPGDPRDTTSPRAMAQTLRNLTLGKALGDSQRAQLVTWMKGNTTGAASIQAGLPASWVVGDKTGSCGYGTTNDIAVIWPKDRAPLILVTYFTQPQPKAESRRDVLASAAKIVTDGL
- Km [9]: 85 µM
- kcat [9]: 8.8 s⁻¹
- Km [10]: 10 µM
- kcat [10]: 0.84 s⁻¹
- kcat [11]: < 0.07 s⁻¹
- Km [12]: 130 µM
- kcat [12]: 65 s⁻¹
- Km [13]: 180 µM
- kcat [13]: 0.69 s⁻¹
- Km [14]: 4.9 µM
- kcat [14]: 58 s⁻¹
- kcat [15]: < 0.05 s⁻¹
- kcat [16]: < 0.07 s⁻¹
- kcat [17]: < 0.46 s⁻¹
- Km [18]: 5.2 µM
- kcat [18]: 49 s⁻¹
- Km [19]: 3.2 µM
- kcat [19]: 27 s⁻¹
- Km [20]: 18 µM
- kcat [20]: 68 s⁻¹
